In US20210395725A1:
Each block holds one substance with its values, some of them ahead of it.

Legend:
[1] = molecular target: wild-type human CD9 LEL (human) (UniProt P21926); assay: yeast display flow cytometry; MEM-61 10 µg/ml + goat anti-mouse (Fab′)2-Alexa Fluor 555; induction at 37 °C; secondary only 4.21
[2] = molecular target: wild-type human CD9 LEL (human) (UniProt P21926); assay: yeast display flow cytometry; MEM-61 10 µg/ml + goat anti-mouse (Fab′)2-Alexa Fluor 555; induction at 20 °C; secondary only 1.14
[3] = molecular target: streptavidin-Alexafluor 647 (UniProt P22629); assay: yeast display flow cytometry; secondary reagent only
[4] = molecular target: hCD81 LEL mutant C4C9 (Ala134Cys/Lys144Cys and Val135Cys/Ser168Cys) (human) (UniProt P60033); assay: ELISA; M38 coated at 5 µg/mL, CD81 LEL variant at 0.555556 µg/ml, anti-his-HRP
[5] = molecular target: wild-type human CD81 LEL (human) (UniProt P60033); assay: as above
[6] = molecular target: hCD81 LEL mutant C4C9 (Ala134Cys/Lys144Cys and Val135Cys/Ser168Cys) (human) (UniProt P60033); assay: ELISA; M38 coated at 5 µg/mL, CD81 LEL variant at 0.002286 µg/ml, anti-his-HRP
[7] = molecular target: wild-type human CD81 LEL (human) (UniProt P60033); assay: as above
[8] = molecular target: hCD81 LEL mutant C4C9 (Ala134Cys/Lys144Cys and Val135Cys/Ser168Cys) (human) (UniProt P60033); assay: ELISA; M38 coated at 5 µg/mL, CD81 LEL variant at 0.006859 µg/ml, anti-his-HRP
[9] = molecular target: wild-type human CD81 LEL (human) (UniProt P60033); assay: as above
[10] = molecular target: hCD81 LEL mutant C4C9 (Ala134Cys/Lys144Cys and Val135Cys/Ser168Cys) (human) (UniProt P60033); assay: ELISA; M38 coated at 5 µg/mL, CD81 LEL variant at 1.666667 µg/ml, anti-his-HRP
[11] = molecular target: wild-type human CD81 LEL (human) (UniProt P60033); assay: as above
[12] = molecular target: hCD81 LEL mutant C4C9 (Ala134Cys/Lys144Cys and Val135Cys/Ser168Cys) (human) (UniProt P60033); assay: ELISA; M38 coated at 5 µg/mL, CD81 LEL variant at 5 µg/ml, anti-his-HRP
[13] = molecular target: wild-type human CD81 LEL (human) (UniProt P60033); assay: as above
[14] = molecular target: hCD81 LEL mutant C4C9 (Ala134Cys/Lys144Cys and Val135Cys/Ser168Cys) (human) (UniProt P60033); assay: ELISA; M38 coated at 5 µg/mL, CD81 LEL variant at 0.061728 µg/ml, anti-his-HRP
[15] = molecular target: wild-type human CD81 LEL (human) (UniProt P60033); assay: as above
[16] = molecular target: hCD81 LEL mutant C4C9 (Ala134Cys/Lys144Cys and Val135Cys/Ser168Cys) (human) (UniProt P60033); assay: ELISA; M38 coated at 5 µg/mL, CD81 LEL variant at 0.185185 µg/ml, anti-his-HRP
[17] = molecular target: wild-type human CD81 LEL (human) (UniProt P60033); assay: as above
[18] = molecular target: hCD81 LEL mutant C4C9 (Ala134Cys/Lys144Cys and Val135Cys/Ser168Cys) (human) (UniProt P60033); assay: ELISA; M38 coated at 5 µg/mL, CD81 LEL variant at 0.020576 µg/ml, anti-his-HRP
[19] = molecular target: wild-type human CD81 LEL (human) (UniProt P60033); assay: as above
[20] = molecular target: wild-type human CD81 LEL (human) (UniProt P60033); assay: HEK293-6E cell display flow cytometry; M38 10 µg/ml + anti-mouse F(ab)2-Alexa Fluor 555; secondary only 8.52

hCD81 LEL mutant C4C9 (Ala134Cys/Lys144Cys and Val135Cys/Ser168Cys) (human), sequence (P60033 114-202 A134C/V135C/K144C/S168C): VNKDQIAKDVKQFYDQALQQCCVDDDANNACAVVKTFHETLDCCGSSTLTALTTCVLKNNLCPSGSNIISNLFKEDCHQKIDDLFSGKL
wild-type human CD81 LEL (human), sequence (P60033 113-201 limits assumed): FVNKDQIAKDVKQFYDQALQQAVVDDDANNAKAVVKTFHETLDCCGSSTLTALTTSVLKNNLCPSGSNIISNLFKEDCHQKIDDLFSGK
wild-type human CD9 LEL (human), sequence (P21926 113-192 limits assumed): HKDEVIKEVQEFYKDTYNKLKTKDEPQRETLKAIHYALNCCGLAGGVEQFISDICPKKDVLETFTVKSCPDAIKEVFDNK
streptavidin-Alexafluor 647, sequence (P22629 37-163 limits assumed): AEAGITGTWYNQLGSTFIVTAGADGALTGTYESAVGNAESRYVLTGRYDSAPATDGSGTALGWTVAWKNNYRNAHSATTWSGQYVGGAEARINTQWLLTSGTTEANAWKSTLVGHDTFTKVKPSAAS

- percentage of positive yeast cells [1]: 26.2%
- percentage of positive yeast cells [2]: 46.4%
Substance: anti-CD9 specific antibody MEM-61

- median fluorescence [3]: 28.3
Substance: wild-type human CD81 LEL (from UniProt P60033 113-201)

- A 450/620 [4]: 3.73
- A 450/620 [5]: 3.63
- A 450/620 [6]: 0.187
- A 450/620 [7]: 0.177
- A 450/620 [8]: 0.75
- A 450/620 [9]: 0.616
- A 450/620 [10]: 3.82
- A 450/620 [11]: 3.69
- A 450/620 [12]: 3.83
- A 450/620 [13]: 3.97
- A 450/620 [14]: 3.46
- A 450/620 [15]: 3.53
- A 450/620 [16]: 3.69
- A 450/620 [17]: 3.68
- A 450/620 [18]: 1.98
- A 450/620 [19]: 1.89
- MFI [20]: 83.8
Substance: anti-hCD81 M38 antibody
